Results: article PMC12648486, “A LisH-domain protein interaction map reveals a Lis1-ARIH2-dynein regulatory axis” (iScience, 2025)

Target: T1, MBP-ARIH2 (UniProt O95376 1-493)
T1 construct: RBR-type E3 ubiquitin ligase ARIH2, cloned in this study into an MBP-tagged Gateway vector; source: E. coli BL21 (DE3), purified (Dextran-Sepharose, maltose elution)
T1 sequence (looked up): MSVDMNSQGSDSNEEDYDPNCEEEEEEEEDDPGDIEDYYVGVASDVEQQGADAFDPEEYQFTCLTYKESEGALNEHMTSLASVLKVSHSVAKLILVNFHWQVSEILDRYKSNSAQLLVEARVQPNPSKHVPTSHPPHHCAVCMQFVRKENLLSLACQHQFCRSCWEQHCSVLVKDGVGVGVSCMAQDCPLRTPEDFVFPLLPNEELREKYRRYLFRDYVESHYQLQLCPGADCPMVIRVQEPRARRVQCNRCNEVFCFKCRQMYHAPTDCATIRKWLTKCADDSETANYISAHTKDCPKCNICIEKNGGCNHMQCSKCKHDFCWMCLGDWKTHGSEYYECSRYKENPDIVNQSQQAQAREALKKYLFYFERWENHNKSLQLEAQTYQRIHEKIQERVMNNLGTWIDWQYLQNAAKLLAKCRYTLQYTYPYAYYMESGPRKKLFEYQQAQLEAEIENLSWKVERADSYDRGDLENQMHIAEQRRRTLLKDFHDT
Assay: pull-down; bacterially purified recombinant GST-tagged protein incubated with purified MBP-ARIH2; eluates immunoblotted with MBP antibody
Conditions: both partners purified

binding result: binds
B1: GST-Lis1 (natural protein, human, UniProt P43034 1-410, looked up)
chain: MVLSQRQRDELNRAIADYLRSNGYEEAYSVFKKEAELDVNEELDKKYAGLLEKKWTSVIRLQKKVMELESKLNEAKEEFTSGGPLGQKRDPKEWIPRPPEKYALSGHRSPVTRVIFHPVFSVMVSASEDATIKVWDYETGDFERTLKGHTDSVQDISFDHSGKLLASCSADMTIKLWDFQGFECIRTMHGHDHNVSSVAIMPNGDHIVSASRDKTIKMWEVQTGYCVKTFTGHREWVRMVRPNQDGTLIASCSNDQTVRVWVVATKECKAELREHEHVVECISWAPESSYSSISEATGSETKKSGKPGPFLLSGSRDKTIKMWDVSTGMCLMTLVGHDNWVRGVLFHSGGKFILSCADDKTLRVWDYKNKRCMKTLNAHEHFVTSLDFHKTAPYVVTGSVDQTVKVWECR
notes: Lis1 (PAFAH1B1), human, in a GST-tagged Gateway vector; source: E. coli BL21 (DE3), purified (Glutathione Sepharose)
